# Substrate: CC1=CC(=O)c2ccccc2C1=O
# Test: cells, lysate or membranes named
# Assay type: biochemical, Caldalkalibacillus thermarum
# Details: 33% PG + 67% PE vesicles with 1% menaquinone-7 embedded as shuttle, co-substrate NADH, 20 mM MOPS, 30 mM Na2SO4, pH 7.4, 25 °C, lipid-dependent
protein,measurement,value
CthNDH-2 (Caldalkalibacillus thermarum type II NADH:quinone oxidoreductase) (Caldalkalibacillus thermarum TA2.A1) (protein) MSKPSIVILGAGYGGIVAALGLQKRLNYNEADITLVNKNDYHYITTELHQPAAGTMHHDQARVGIKELIDEKKIKFVKDTVVAIDREQQKVTLQNGELHYDYLVVGLGSEPETFGIEGLREHAFSINSINSVRIIRQHIEYQFAKFAAEPERTDYLTIVVGGAGFTGIEFVGELADRMPELCAEYDVDPKLVRIINVEAAPTVLPGFDPALVNYAMDVLGGKGVEFKIGTPIKRCTPEGVVIEVDGEEEEIKAATVVWTGGVRGNSIVEKSGFETMRGRIKVDPYLRAPGHENIFIVGDCALIINEENNRPYPPTAQIAIQHGENVAANLAALIRGGSMTPFKPHIRGTVASLGRNDAIGIVGGRKVYGHAASWLKKLIDMRYLYLIGGLSLVLKKGRF,Km,21.7 µM
